Data on 1 molecule can be found in US20110154538A1 (UNITED STATES OF AMERICA AS REPRESENTED BY THE SECRETARY OF …, published 2011).

The target in this experiment is T1, Gal4 activation domain (AD) negative control (UniProt P04386 768-881).
T1 sequence: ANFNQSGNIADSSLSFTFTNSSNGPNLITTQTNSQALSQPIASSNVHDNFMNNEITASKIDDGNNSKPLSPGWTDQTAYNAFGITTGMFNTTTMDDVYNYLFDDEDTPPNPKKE
As to the kind of experiment: yeast two-hybrid, growth on selective medium.

B1: AltMV-Po coat protein (other)
chain: MSTPFPQVTQEQIDAFTPHTTSNLLPSPEQLTTIASLLVAAKVPAASTTTIALELVNFCYDNGSSAYTVVVGPSSISGVSLSQVANIVKASGTSLRKFCRFFAPIIWNLRTDKTPPANWEANGFKPTEKFAAFDFFDGVENPAAMQPPGGLVRAPSQAERIANATNKQVNLFQAAAQDNNFASNSAFITKGQLSSNSPTIQYLPPPE
notes: also called AltMV-Po CP; CP-Po
For B1, the binding result is reported as “no binding”.
